This is an account of results in patent US20210017265A1 (RIKEN, published 2021).

Usually Kd stands for a measure of binding affinity in units of concentration. The koff is a measure of how fast the partners let go of each other. By kon is commonly meant the second-order rate constant of association.

Assay [1] concerns the target human TGF-β1-LAP (amino acid residues position-30 to position-390), recombinant, Example 4 (human) (UniProt P01137). Briefly: SPR, Biacore T200; antibody immobilised on CM5, analyte 1.56-25 nM. In general terms: In SPR one partner is held on a chip, and binding of the other changes the refractive index at the surface.
Assay [2] concerns the target complex of human TGF-β1 LAP-D and A2D109 antibody Fab fragment (human) (UniProt P01137). Briefly: SPR, Biacore T200; antibody immobilised on CM5, analyte is the preformed LAP/A2D109 Fab complex, 1.56-25 nM.
The target in assay [3] is T1, human TGF-β1-LAP (amino acid residues position-30 to position-390), recombinant, Example 4 (human, UniProt P01137 30-390).
T1 construct: Expressed in HEK293F cells behind an Igk signal with a TEV-cleavable His tag, which was cut off; Stated molecular weight 41653 Da; also called human TGF-β1 LAP-D; TGF-β LAP
Put plainly: complex formation, gel filtration. As for the experimental part: A Fab fragment (A2D109 Fab) was prepared from the A2D109 antibody using Pierce (trademark) Mouse IgG1 Fab and F(ab′)2 Preparation Kit (manufactured by Thermo Fisher). The concrete operation of the procedure was carried out in accordance with the manual included in the kit. A reaction solution produced by the procedure was purified by gel filtration using Superdex 200 Increase 10/300 GL (manufactured by GE Healthcare). A 50-kDa elution fraction was collected, and the fraction was used as A2D109 Fab. Purified recombinant TGF-β1-LAP and purified A2D109 Fab were mixed together at a molar mixing ratio of 1:1. A complex thus produced was purified by gel filtration chromatography (HiLoad 16/600 Superdex 200 pg, manufactured by GE Healthcare) using a column equilibrated with a buffer composed of 20 mM Tris-HCl (pH 8.0), 150 mM NaCl and 10% glycerol.

The target in assay [4] is T2, complex of human TGF-β1 LAP-D and A2D109 antibody Fab fragment (human, UniProt P01137 30-390).
T2 construct: Preformed complex, mixed 1:1 by moles and purified by gel filtration; Stated molecular weight 89514 Da; Used as the SPR analyte; also called TGF-β LAP-A2D109Fab; complex of human TGF-β1 LAP and A2D109 Fab
Put plainly: SPR, Biacore T200; antibody immobilised on CM5, analyte is the preformed LAP/A2D109 Fab complex, 1.56-25 nM. As for the experimental part: (§1) Each of the anti-LAP-D antibody (A10) and the BAM2462 antibody was immobilized on a Biacore (registered trademark) sensor chip Series S Sensor Chip CM5 (manufactured by GE Healthcare). The amounts of these antibodies immobilized were 2027 RU and 310 RU, respectively. Each of a solution of human TGF-β1 LAP and a solution of a complex of human TGF-β1 LAP and A2D109 Fab was diluted with a buffer composed of 10 mM of HEPES-NaOH (pH 7.5), 150 mM of NaCl, 3 mM of EDTA and 0.005% of Surfactant P-20 to prepare solutions having various concentrations. Each of these solutions was fed to Biacore (registered trademark) T200 (manufactured by GE Healthcare). The analyte concentration in each of the solutions and the measurement conditions are shown below. Measurement data were analyzed using Biacore (registered trademark) Evaluation software to acquire date on the affinity of each of the antibodies.

The target of assay [5] is T1, human TGF-β1-LAP (amino acid residues …). Briefly: SPR, Biacore T200; antibody immobilised on CM5, analyte 1.56-25 nM. The method, then:
as §1

T1 sequence (P01137 30-390): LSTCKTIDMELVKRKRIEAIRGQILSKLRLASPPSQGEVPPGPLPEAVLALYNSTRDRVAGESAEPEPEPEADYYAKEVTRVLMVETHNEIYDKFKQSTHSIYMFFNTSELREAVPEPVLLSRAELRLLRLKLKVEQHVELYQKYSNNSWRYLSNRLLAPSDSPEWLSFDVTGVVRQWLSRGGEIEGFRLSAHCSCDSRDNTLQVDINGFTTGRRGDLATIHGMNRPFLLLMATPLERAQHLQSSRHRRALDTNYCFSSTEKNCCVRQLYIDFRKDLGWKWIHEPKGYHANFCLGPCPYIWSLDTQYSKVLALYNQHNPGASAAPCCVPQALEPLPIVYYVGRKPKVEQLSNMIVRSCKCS
Chain of human TGF-β1-LAP (amino acid residues position-30 to position-390), recombinant, Example 4 (human) (P01137 30-390): as above
Chain of complex of human TGF-β1 LAP-D and A2D109 antibody Fab fragment (human) (P01137 30-390, one chain of several): as the sequence (P01137 30-390) above
T2 sequence (P01137 30-390, one chain of several): as the sequence (P01137 30-390) above

As to “anti-human LAP TGF-β1 antibody (BAM2462, manufactured by R&D Systems)”, in assay [1], the Kd turned out to be 0.0167 nM, the koff turned out to be 2.34e-05 s⁻¹ and the kon is 1.4e+06 M⁻¹ s⁻¹. In addition, in assay [2], the Kd amounted to 0.345 nM, the koff is 0.000154 s⁻¹ and the kon came out at 447000 M⁻¹ s⁻¹.

B1: A2D109 antibody Fab fragment (Fab, V domains shown)
VH: EVQLQQSGAELVRPGASVKLSCKASGYTFTSYWMNWVKQRPGQGLEWIGMIDPSDSETHYNQMFKDKATLTVDKSSSTAYMQLSSLTSEDSAVYYCVNWPYALDYWGQGTSVTVSS
VL: QIVLTQSPAIMSASPGEKVTMTCSASSSVSYMHWFQQKPGTSPKLWIYSTSNLASGVPARFSGSGSGTSYSLTISRMEAEDAATYYCQQRSSYPFTFGSGTKLEIKR
notes: Fab made from the mouse A2D109 antibody with a Mouse IgG1 Fab preparation kit; 50-kDa gel filtration fraction; the constant parts of the Fab are not; also called A2D109 Fab; A2D109Fab
As for B1, the binding result in assay [3] is on record as “binds”.

B2: anti-LAP-D antibody (A10) (antibody, mouse IgG1, kappa, V domains shown)
VH: QVQLQQPGAELVRPGASVKLSCKTSGYSFTRFWMNWVRQRPGQGLEWIGMIHSSDSITRLNQKFKDKATLTLDYSSSTAYMQLSSPTSEDSAVYYCARGYDEYSAMDYWGQGTSVPVSS
VL: DIQMTQSPSSLSASLGERVSLTCRASHEISGYLGWLQRQPDGTIKRLIYAASTLDSGVPKRFSGSRSGSDYSLTISSLESEDFADYYCLQYASYPFTFGSGTKLEVKR
notes: Biotin-labelled when used as ELISA detection antibody; immobilised on a CM5 chip in SPR; also called isolated monoclonal antibody of the present embodiment
B2: in assay [4], the koff was found to be 0.000201 s⁻¹ and the on-rate (kon) was found to be 304000 M⁻¹ s⁻¹. For the same molecule, in assay [5], the equilibrium dissociation constant (Kd) is 0.214 nM, the koff is 4.17e-05 s⁻¹ and the kon came out at 195000 M⁻¹ s⁻¹.
